From paper PMC5916898, “Global profiling of protein–DNA and protein–nucleosome binding affinities using quantitative mass spectrometry” come the findings set out here.

Data set [1] concerns the target T1, ZBTB10 (Homo sapiens, UniProt Q96DT7).
T1 sequence: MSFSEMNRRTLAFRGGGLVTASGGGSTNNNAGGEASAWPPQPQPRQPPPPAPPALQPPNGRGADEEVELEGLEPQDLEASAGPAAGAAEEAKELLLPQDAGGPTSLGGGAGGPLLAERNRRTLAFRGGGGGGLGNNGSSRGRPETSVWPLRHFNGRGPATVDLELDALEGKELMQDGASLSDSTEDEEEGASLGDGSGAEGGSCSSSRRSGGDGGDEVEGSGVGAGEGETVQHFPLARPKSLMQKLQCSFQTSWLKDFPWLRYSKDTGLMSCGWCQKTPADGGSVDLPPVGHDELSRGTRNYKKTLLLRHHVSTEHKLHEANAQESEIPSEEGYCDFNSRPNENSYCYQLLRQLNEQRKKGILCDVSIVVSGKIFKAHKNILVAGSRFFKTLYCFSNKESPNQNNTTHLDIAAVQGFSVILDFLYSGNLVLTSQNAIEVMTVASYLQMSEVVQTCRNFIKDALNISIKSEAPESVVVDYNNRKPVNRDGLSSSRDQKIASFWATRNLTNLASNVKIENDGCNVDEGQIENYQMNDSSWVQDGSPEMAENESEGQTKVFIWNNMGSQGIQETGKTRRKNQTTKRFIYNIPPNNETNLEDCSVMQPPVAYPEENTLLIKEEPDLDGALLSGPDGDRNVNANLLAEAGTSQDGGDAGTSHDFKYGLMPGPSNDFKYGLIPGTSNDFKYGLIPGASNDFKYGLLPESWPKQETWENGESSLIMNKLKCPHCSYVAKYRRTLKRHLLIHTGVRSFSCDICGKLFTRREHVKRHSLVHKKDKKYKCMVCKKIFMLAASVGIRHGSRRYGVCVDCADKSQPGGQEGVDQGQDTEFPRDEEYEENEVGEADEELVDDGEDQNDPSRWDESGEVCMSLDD
The experiment in a line: pulldown; 150 mM NaCl, 50 mM Tris pH 8, 0.25% NP-40, 1 mM TCEP; 4 C, 2 h; 100 ug HeLa nuclear lysate. As to conditions: protein: extract; label: 5' biotin (strand 1).

Data set [2] addresses KLF4 (Homo sapiens, UniProt O43474). Kind of data set: competition; 150 mM NaCl, 50 mM Tris pH 8, 0.25% NP-40, 1 mM TCEP; 4 C, 2 h; 100 ug HeLa nuclear lysate; free competitor against 200 nM immobilised SP/KLF wild-type. To be noted: protein: extract.
In data set [3] the target is T2, ZNF281 (Homo sapiens, UniProt Q9Y2X9).
T2 sequence: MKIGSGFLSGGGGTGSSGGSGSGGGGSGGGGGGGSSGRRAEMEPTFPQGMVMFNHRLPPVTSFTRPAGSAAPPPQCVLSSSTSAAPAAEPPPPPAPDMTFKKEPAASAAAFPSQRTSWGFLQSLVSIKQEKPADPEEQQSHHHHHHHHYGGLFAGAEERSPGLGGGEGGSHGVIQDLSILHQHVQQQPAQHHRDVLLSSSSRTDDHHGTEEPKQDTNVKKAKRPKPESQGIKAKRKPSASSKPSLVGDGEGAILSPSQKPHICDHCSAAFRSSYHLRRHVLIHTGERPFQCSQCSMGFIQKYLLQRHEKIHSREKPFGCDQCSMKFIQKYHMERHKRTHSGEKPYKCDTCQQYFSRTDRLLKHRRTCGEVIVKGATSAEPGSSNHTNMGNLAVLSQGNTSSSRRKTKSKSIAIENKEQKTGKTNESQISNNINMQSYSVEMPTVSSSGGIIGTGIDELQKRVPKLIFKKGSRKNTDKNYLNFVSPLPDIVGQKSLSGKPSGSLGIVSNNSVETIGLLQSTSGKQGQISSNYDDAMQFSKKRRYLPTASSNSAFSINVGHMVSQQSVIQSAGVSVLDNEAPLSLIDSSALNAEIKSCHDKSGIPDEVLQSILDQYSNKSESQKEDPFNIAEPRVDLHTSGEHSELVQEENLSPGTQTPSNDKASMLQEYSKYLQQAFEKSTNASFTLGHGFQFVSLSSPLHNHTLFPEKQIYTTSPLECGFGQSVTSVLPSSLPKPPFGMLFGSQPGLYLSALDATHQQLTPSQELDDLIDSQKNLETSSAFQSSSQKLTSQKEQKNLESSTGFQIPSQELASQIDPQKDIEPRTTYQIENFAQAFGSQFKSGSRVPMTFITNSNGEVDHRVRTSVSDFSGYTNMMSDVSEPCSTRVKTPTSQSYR
Described as above. As to conditions: protein: extract.

Data set [4] concerns the target KLF10 (Homo sapiens, UniProt Q13118). The description is as above. To be noted: protein: extract.
Data set [5] has as its target KLF3 (Homo sapiens, UniProt P57682). The data set is described as above. As to conditions: protein: extract.
In data set [6] the target is SP4 (Homo sapiens, UniProt Q02446). Described as above. As to conditions: protein: extract.
Chain of SP4 (Q02446 whole entry): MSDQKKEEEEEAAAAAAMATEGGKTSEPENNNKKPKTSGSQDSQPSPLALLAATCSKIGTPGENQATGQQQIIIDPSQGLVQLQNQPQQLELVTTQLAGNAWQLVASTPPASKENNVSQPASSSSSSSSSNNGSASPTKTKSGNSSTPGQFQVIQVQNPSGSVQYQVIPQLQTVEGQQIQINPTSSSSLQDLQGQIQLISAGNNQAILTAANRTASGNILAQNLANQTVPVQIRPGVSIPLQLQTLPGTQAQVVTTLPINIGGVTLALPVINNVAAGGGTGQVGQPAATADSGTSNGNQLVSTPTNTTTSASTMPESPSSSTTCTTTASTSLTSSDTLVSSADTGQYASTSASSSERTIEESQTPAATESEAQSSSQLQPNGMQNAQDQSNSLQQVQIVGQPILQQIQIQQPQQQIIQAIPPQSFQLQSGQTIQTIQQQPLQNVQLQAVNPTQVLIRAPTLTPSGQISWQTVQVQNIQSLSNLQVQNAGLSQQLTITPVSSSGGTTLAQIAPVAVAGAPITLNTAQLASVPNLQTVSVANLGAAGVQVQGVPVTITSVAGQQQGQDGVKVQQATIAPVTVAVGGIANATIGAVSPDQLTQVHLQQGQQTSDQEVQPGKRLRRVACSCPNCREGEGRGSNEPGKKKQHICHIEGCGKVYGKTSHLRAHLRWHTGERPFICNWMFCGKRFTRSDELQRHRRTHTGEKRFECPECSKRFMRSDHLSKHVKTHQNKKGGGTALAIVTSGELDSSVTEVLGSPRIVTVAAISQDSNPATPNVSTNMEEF
Data set [7] addresses TFAP2A (Homo sapiens, UniProt P05549). Described as above. To be noted: protein: extract.
For data set [8], the target named is KLF16 (Homo sapiens, UniProt Q9BXK1). The description is as above. To be noted: protein: extract.
Chain of KLF16 (Q9BXK1 whole entry): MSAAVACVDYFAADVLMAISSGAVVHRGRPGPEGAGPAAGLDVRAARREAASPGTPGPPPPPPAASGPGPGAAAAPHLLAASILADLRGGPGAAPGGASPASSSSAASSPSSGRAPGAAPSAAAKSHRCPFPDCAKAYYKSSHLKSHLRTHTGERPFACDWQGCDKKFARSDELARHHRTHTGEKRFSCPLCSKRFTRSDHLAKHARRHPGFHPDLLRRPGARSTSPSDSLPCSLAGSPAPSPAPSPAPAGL

For orientation: IC50 means the point on the concentration scale where inhibition reaches its midpoint. Read a high IC50 as a need for much substance.

Chain of KLF10 (Q13118 whole entry): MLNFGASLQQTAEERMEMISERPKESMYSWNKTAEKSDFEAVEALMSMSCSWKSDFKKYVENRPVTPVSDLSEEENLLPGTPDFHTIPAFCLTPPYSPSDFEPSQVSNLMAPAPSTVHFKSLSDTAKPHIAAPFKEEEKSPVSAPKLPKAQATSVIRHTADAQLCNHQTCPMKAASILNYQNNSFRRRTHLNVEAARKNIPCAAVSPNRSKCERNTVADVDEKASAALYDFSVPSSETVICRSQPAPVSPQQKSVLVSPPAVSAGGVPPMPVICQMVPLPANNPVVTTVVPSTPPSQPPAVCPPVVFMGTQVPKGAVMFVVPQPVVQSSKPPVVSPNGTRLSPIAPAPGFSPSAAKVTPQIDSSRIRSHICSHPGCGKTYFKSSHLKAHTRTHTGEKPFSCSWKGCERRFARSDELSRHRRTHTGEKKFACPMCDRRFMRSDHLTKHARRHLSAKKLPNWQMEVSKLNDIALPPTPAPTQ
Chain of KLF4 (O43474 whole entry): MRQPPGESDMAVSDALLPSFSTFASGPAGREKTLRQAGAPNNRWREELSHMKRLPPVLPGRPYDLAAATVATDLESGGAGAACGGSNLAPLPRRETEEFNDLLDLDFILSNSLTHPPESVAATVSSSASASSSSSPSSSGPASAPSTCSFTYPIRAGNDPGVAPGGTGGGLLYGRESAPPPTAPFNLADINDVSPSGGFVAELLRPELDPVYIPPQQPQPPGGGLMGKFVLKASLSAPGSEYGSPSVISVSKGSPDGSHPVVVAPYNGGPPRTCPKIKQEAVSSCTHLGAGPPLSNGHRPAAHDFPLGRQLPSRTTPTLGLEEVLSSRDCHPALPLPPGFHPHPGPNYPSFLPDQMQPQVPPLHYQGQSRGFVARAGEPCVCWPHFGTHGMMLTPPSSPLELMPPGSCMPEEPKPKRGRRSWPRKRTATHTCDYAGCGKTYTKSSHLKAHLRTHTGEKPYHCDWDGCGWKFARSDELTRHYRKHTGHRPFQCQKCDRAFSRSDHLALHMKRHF
Chain of KLF3 (P57682 whole entry): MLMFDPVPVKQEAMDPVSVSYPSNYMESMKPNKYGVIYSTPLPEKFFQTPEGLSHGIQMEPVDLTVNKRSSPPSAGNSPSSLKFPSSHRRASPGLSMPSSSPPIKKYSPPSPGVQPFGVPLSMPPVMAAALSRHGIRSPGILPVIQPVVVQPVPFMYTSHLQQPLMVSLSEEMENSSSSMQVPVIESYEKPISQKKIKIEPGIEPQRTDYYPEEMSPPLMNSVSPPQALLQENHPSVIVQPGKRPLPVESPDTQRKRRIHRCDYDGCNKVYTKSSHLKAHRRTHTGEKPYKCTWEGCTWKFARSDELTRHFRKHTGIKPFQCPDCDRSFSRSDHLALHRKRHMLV
Chain of TFAP2A (P05549 whole entry): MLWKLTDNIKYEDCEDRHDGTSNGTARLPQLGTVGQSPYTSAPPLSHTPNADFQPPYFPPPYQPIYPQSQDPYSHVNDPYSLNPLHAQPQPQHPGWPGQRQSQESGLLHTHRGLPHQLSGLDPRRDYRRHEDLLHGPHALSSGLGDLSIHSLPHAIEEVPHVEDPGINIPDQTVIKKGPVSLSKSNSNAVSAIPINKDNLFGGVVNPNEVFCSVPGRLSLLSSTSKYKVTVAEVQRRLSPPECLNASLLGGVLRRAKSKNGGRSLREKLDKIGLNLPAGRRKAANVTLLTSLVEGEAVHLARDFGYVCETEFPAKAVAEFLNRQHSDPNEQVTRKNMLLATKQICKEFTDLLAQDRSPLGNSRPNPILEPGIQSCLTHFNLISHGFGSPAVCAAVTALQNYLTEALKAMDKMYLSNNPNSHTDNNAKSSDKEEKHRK

B1: CTCF (dsDNA)
DNA 1: TCAGAGTGGCGGCCAGCAGGGGGCGCCCTTGCCAGA
DNA 2: TCTGGCAAGGGCGCCCCCTGCTGGCCGCCACTCTGA
Regarding B1, the “apparent K (half saturation)” value in data set [1] was found to be 40.4 nM.

B2: SP/KLF wild-type (dsDNA)
DNA 1: GAGAGCCCCGCCCCCTGGCT
DNA 2: AGCCAGGGGGCGGGGCTCTC
With B2, the IC50 stood at 229 nM in data set [2]; 176 nM in data set [3]; 111 nM in data set [4]; 112 nM in data set [5]; 87.5 nM in data set [6]; 215 nM in data set [7]. This molecule registered a half-maximal inhibitory concentration (IC50) in data set [8] of 176 nM.
